This note sets out measurements from patent US20170173125A1.

Where no end group is shown, it is not given here.

In experiment [1] the target is TCRs of CD8+CD40Ig Tregs (CD8+CD45RClow Tregs from CD40Ig-treated long-term allograft bearing LEW.1A recipients). The experiment in a line: cell-based or functional assay.
Experiment [2] shares this target. Description: BV421 control tetramer staining, flow cytometry, 10 µg/mL. In general terms: In flow cytometry, cells or beads pass a laser one at a time.
For experiment [3] the target is unchanged. The experiment in a line: PE and APC tetramer double staining, flow cytometry, 10 µg/mL, 1 hour at 4° C.
Experiment [4] deals with TCRs of naive splenic CD8+CD45RClow Tregs. The experiment is described as above.

On to YLRYDSDVGEYRAVTE [peptide Bu31], for which, in experiment [1], the CD25 expression at the cell surface of CD8+CD40Ig Tregs after 6 days with matured syngeneic pDCs, fold vs. no peptide is 1.67 fold.

Regarding ILFPSSERLISNR (peptide-MHC, part only; not given: MHC heavy chain and b2m, part only, also: bound in MHC class I RT1.A^a tetramer with streptavidin-BV421) [control tetramer RT1.A^a/MTF-E], the percent non-specific staining among Bu31-10-specific cells in experiment [2] is 1.6%. Take YLRYDSDVGEYR (peptide-MHC, part only; not given: MHC heavy chain and b2m, part only, also: bound in MHC class I RT1.A^a tetramer with streptavidin-PE or -APC) [MHC class I tetramer RT1.A^a/Bu31-10]: in experiment [3], the percent of Bu31-specific (tetramer-stained) cells among CD8+CD40Ig Tregs, graft is 1.11% and the percent of Bu31-specific (tetramer-stained) cells among CD8+CD40Ig Tregs, spleen was 0.281%. The precursor frequency (tetramer-stained cells) in naive splenic CD8+CD45RClow Tregs in experiment [4] came out at 0.187%.
